The source of these data is patent US11214624 (PRODA BIOTECH, dated 2022).

The target of experiment [1] is T1, dynein (endogenous, in SW480 cell extracts) (UniProt O14576 2-645).
T1 construct: Multi-subunit motor; also called Dynein intermediate 1
In words: co-immunoprecipitation in extracts of scratch-wounded SW480 cells.

Experiment [2] has as its target T2, kinesin (endogenous, in SW480 cell extracts) (UniProt P33176 2-963).
T2 construct: also called heavy chain of kinesin-1
T2 sequence (looked up): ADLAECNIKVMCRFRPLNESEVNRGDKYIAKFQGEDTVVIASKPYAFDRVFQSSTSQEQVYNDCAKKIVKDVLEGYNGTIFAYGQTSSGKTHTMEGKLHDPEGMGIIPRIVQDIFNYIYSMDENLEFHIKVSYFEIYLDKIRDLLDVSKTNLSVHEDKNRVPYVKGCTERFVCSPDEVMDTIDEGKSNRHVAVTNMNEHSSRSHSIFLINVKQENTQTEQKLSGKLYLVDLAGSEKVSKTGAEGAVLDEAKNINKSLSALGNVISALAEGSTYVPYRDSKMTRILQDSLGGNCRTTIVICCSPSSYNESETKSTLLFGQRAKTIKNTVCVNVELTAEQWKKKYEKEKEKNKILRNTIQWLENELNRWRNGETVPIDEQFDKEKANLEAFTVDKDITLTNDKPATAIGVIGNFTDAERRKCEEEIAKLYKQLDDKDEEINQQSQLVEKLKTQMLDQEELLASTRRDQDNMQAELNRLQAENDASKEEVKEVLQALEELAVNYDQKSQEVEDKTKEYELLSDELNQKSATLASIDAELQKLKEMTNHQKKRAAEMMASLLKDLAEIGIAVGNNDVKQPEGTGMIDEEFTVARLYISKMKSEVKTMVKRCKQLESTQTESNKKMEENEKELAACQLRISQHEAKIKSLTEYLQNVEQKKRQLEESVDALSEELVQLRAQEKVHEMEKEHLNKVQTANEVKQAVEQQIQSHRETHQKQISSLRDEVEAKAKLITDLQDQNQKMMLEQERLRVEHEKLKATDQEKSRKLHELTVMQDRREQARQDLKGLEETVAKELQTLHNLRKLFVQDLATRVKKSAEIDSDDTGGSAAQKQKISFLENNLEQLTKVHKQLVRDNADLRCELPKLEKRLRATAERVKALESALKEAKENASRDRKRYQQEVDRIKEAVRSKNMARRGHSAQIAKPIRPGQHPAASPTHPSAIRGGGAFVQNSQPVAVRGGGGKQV
The description is as above.

T1 sequence (O14576 2-645): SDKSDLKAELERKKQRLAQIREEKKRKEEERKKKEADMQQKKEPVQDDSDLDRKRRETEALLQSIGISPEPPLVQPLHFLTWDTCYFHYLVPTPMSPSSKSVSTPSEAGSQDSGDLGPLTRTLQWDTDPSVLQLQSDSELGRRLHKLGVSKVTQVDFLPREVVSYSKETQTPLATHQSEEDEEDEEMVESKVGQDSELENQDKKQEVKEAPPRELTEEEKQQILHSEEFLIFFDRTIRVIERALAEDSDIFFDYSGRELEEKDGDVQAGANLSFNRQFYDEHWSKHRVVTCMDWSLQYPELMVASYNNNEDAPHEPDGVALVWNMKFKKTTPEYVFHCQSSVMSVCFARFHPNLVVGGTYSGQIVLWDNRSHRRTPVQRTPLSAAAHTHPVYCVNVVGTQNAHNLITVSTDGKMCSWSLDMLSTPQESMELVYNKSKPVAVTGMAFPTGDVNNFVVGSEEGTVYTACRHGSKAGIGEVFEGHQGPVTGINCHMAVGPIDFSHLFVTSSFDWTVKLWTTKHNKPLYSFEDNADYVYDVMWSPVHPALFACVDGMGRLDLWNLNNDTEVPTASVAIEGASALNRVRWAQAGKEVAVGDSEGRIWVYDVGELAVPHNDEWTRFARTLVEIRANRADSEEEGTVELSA

B1: p68 RNA helicase (endogenous, in SW480 cell extracts) (enzyme)
chain: MSGYSSDRDRGRDRGFGAPRFGGSRAGPLSGKKFGNPGEKLVKKKWNLDELPKFEKNFYQEHPDLARRTAQEVETYRRSKEITVRGHNCPKPVLNFYEANFPANVMDVIARQNFTEPTAIQAQGWPVALSGLDMVGVAQTGSGKTLSYLLPAIVHINHQPFLERGDGPICLVLAPTRELAQQVQQVAAEYCRACRLKSTCIYGGAPKGPQIRDLERGVEICIATPGRLIDFLECGKTNLRRTTYLVLDEADRMLDMGFEPQIRKIVDQIRPDRQTLMWSATWPKEVRQLAEDFLKDYIHINIGALELSANHNILQIVDVCHDVEKDEKLIRLMEEIMSEKENKTIVFVETKRRCDELTRKMRRDGWPAMGIHGDKSQQERDWVLNEFKHGKAPILIATDVASRGLDVEDVKFVINYDYPNSSEDYIHRIGRTARSTKTGTAYTFFTPNNIKQVSDLISVLREANQAINPKLLQLVEDRGSGRSRGRGGMKDDRRDRYSAGKRGGFNTFRDRENYDRGYSSLLKRDFGAKTQNGVYSAANYTNGSFGSNFVSAGIQTSFRTGNPTGTYQNGYDSTQQYGSNVPNMHNGMNQQAYAYPATAAAPMIGYPMPTGYSQ
notes: Endogenous protein in lysates of SW480 cells; also called Human p68
As for B1, the binding result in experiment [1] and in experiment [2] was “no binding” throughout.

B2: HA-tagged wild-type p68 (HA-p68), immunopurified from SW480 cell lysates (enzyme)
chain: B1 chain
notes: One construct, purified from SW480 cells either with or without scratch-wound treatment; also called HA-p68 WT; WT; not shown: hemagglutinin (HA) tag from the pHM6 vector
B2: the binding result in experiment [1] and in experiment [2] was “no binding” in each case.
